Laboratory results taken from publication PMC10143992, “Interkingdom Signaling of the Insect Pathogen Photorhabdus luminescens with Plants Via the LuxR solo SdiA” (Microorganisms, 2023).
pKd: −log10 of the molar value.

Legend:
SdiA (6His-SdiA) = molecular target: T1, SdiA (6His-SdiA) (Photorhabdus laumondii, UniProt Q7N9K5); experiment: nanoDSF thermal shift (intrinsic Trp fluorescence […] nm); format: binding; settings: 10 nM ligand; 0.3 mg/mL SdiA; 1.5 °C/min; versus solvent control
T1 construct: gene plu0320

[1] = tested on: T2, SdiA (LuxR solo, 6His-SdiA) (Photorhabdus luminescens DJC), ORF:60ed44fe; experiment: SPR; settings: SPR Biacore T200, SA chip, HBS-EP+ (10 mM HEPES pH 7.4, 150 mM NaCl, 3 mM EDTA, 0.005% Tween-20), SdiA 1.5625-200 nM, 30 uL/min, 1:1 fit; temperature not …
T2 sequence: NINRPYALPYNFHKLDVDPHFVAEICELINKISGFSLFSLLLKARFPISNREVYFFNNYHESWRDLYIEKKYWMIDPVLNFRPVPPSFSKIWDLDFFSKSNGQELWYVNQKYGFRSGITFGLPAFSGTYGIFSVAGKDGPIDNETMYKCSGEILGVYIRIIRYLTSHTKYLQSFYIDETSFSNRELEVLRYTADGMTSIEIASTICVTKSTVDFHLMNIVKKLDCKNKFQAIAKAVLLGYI

[2] = tested on: SdiA (LuxR solo, 6His-SdiA) (Photorhabdus luminescens DJC); experiment: SPR; settings: SPR Biacore T200, SA chip, HBS-EP+ (10 mM HEPES pH 7.4, 150 mM NaCl, 3 mM EDTA, 0.005% Tween-20), SdiA 1.5625-200 nM, 30 uL/min, 1:1 fit, temperature not …

T1 sequence (Q7N9K5 entry or part of it): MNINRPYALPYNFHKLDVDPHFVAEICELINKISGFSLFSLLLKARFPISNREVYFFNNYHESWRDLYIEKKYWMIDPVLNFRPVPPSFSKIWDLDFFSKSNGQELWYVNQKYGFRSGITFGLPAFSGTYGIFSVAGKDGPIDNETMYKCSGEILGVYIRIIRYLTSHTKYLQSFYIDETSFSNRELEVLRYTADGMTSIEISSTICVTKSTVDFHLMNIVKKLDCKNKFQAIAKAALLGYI

With `CCCC(=O)N[C@H]1CCOC1=O` [C4-AHL] the DTM (SdiA (6His-SdiA)) was −3.9 °C.
For `CCCCCCCCCCCC(=O)N[C@H]1CCOC1=O` [C12-AHL], the DTM (SdiA (6His-SdiA)) was “+1.6 °C”.
For “GACACCTCTTTACATATTTAAACTATTTATTGGGAATCGAAAGGTTATTTTGCTTACTCATTATTATTCTAATAACTTTCTTTTTATATAATTAACTATTAAAGTTGAAACAGCTACTGGGATAAATCATAGTTTATATGGGAAAATTACTCATATATTTATTAGGTATTGCTTCATATAG (double strand) [PaidA promoter fragment]”, the pKd [1] was 8.36.
“GTCATTATTCGCTGTTCACTCATCTTTTAATGGCACAATAAGCCCTGACTTTTTACTTTAATTACCCGCTTTAGATCGAGAGGGCTATGTTAGGGTGGCAGTCTAAAAATATGCCGTATATTACTTTGGGTTAATATGGCATTGAATGGCGTAGGTTATAGGGTGGTTTAACACGAGGTTTTT (double strand) [PfliE promoter fragment]” was tested, and the binding [1] was “no binding”.
PaidA promoter fragment was tested, and the pKd ([2]; 3.3% (v/v) plant root exudate (PRE), ka 8.2e4 /M/s, kd 1.1e-3 /s) was 7.88 and the pKd ([2]; no ligand, ka 3.9e5 /M/s, kd printed 1.7 x 103 /s (1.7e-3 from Kd)) was 8.36.
With PsdiA promoter fragment the pKd ([2]; 3.3% (v/v) plant root exudate (PRE), ka 1.8e5 /M/s, kd 2.0e-2 /s) was 6.96 and the pKd ([2]; no ligand, ka 1.1e5 /M/s, kd 3.1e-3 /s) was 7.56.
